This is an account of results in PMC10074443.

One series has as its system C[C@@H](N)[C@H](N)C(=O)O. The series can be described thus: continuous MesG/hydroxylamine coupled adenylation assay. As to conditions: co-substrate ATP; hydroxylamine as acceptor. Format: biochemical, Paraburkholderia acidicola.
A further series concerns N[C@H](CF)[C@H](N)C(=O)O. Described as above. The series is classed as biochemical, Paraburkholderia acidicola. The conditions noted are these: co-substrate ATP; hydroxylamine as acceptor.

What is called Km is the concentration of substrate that gives half-maximal velocity. For “A3 (adenylation domain of SulM) (Paraburkholderia acidicola)”, the Km in the series with C[C@@H](N)[C@H](N)C(=O)O came to 1.08 mM; in the series on N[C@H](CF)[C@H](N)C(=O)O, 20.7 mM.
